Results taken from paper PMC3299985 (Structure(London, England:1993), 2012).

T1: Orc1 (subunit of the purified ORC) (S. cerevisiae, UniProt P54784 1-914)
T1 sequence (looked up): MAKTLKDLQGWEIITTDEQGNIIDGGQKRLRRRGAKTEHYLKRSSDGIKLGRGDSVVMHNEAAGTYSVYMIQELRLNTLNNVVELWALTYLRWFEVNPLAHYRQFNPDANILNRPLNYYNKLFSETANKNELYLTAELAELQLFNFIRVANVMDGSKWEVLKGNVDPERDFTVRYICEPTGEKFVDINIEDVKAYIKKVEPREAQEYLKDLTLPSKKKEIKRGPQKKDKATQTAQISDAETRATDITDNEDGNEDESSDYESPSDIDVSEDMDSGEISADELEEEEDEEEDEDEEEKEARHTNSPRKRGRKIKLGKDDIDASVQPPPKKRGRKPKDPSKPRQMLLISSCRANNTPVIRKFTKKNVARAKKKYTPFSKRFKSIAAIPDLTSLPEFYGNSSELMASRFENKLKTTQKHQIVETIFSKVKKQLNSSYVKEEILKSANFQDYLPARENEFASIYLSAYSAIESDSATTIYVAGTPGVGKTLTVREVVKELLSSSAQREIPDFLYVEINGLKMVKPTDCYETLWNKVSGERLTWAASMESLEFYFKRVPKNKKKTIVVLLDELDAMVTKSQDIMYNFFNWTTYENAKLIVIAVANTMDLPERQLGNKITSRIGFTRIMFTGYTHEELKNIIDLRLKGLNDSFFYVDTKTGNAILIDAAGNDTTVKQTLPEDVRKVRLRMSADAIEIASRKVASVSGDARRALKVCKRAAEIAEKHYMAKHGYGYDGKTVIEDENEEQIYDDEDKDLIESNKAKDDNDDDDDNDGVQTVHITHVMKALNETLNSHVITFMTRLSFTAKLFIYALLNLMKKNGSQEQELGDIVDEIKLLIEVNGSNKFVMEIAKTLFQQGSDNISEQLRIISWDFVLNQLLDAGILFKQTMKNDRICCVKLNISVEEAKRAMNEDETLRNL

T2: Orc2 (subunit of the purified ORC) (S. cerevisiae, UniProt P32833 1-620)
T2 sequence (looked up): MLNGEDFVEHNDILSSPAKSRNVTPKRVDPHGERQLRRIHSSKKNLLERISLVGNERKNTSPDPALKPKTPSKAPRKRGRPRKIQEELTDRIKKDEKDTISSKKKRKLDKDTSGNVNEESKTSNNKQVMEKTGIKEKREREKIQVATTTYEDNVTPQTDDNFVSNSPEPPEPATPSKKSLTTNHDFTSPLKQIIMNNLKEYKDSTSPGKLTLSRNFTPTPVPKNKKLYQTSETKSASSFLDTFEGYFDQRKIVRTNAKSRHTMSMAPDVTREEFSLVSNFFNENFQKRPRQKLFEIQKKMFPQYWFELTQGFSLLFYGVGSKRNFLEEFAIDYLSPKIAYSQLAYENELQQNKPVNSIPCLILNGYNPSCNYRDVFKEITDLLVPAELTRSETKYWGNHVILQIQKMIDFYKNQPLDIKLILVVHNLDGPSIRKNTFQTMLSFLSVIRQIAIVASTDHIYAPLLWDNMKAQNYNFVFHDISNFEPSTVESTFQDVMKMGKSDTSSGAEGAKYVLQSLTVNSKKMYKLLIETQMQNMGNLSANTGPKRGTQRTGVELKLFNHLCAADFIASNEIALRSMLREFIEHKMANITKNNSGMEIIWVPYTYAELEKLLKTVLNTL

B1: Orc4 (subunit of the purified ORC) (natural protein, S. cerevisiae, UniProt P54791 1-529, looked up)
chain: MTISEARLSPQVNLLPIKRHSNEEVEETAAILKKRTIDNEKCKDSDPGFGSLQRRLLQQLYGTLPTDEKIIFTYLQDCQQEIDRIIKQSIIQKESHSVILVGPRQSYKTYLLDYELSLLQQSYKEQFITIRLNGFIHSEQTAINGIATQLEQQLQKIHGSEEKIDDTSLETISSGSLTEVFEKILLLLDSTTKTRNEDSGEVDRESITKITVVFIFDEIDTFAGPVRQTLLYNLFDMVEHSRVPVCIFGCTTKLNILEYLEKRVKSRFSQRVIYMPQIQNLDDMVDAVRNLLTVRSEISPWVSQWNETLEKELSDPRSNLNRHIRMNFETFRSLPTLKNSIIPLVATSKNFGSLCTAIKSCSFLDIYNKNQLSNNLTGRLQSLSDLELAILISAARVALRAKDGSFNFNLAYAEYEKMIKAINSRIPTVAPTTNVGTGQSTFSIDNTIKLWLKKDVKNVWENLVQLDFFTEKSAVGLRDNATAAFYASNYQFQGTMIPFDLRSYQMQIILQELRRIIPKSNMYYSWTQL

How the values were obtained:
Test in all cases: cryo-EM structure
[1] = target: T1, Orc1 (subunit of the purified ORC)
[2] = target: T2, Orc2 (subunit of the purified ORC)
[3] = target: B1

binding result [1]	binding result [2]	binding result [3]	Binder
binds			B1
	binds		Orc6 (subunit of the purified ORC) (natural protein, S. cerevisiae, UniProt P38826 1-435, looked up) MSMQQVQHCVAEVLRLDPQEKPDWSSGYLKKLTNATSILYNTSLNKVMLKQDEEVARCHICAYIASQKMNEKHMPDLCYYIDSIPLEPKKAKHLMNLFRQSLSNSSPMKQFAWTPSPKKNKRSPVKNGGRFTSSDPKELRNQLFGTPTKVRKSQNNDSFVIPELPPMQTNESPSITRRKLAFEEDEDEDEEEPGNDGLSLKSHSNKSITGTRNVDSDEYENHESDPTSEEEPLGVQESRSGRTKQNKAVGKPQSELKTAKALRKRGRIPNSLLVKKYCKMTTEEIIRLCNDFELPREVAYKIVDEYNINASRLVCPWQLVCGLVLNCTFIVFNERRRKDPRIDHFIVSKMCSLMLTSKVDDVIECVKLVKELIIGEKWFRDLQIRYDDFDGIRYDEIIFRKLGSMLQTTNILVTDDQYNIWKKRIEMDLALTEPL
	binds	binds	Orc5 (subunit of the purified ORC) (natural protein, S. cerevisiae, UniProt P50874 1-479, looked up) MNVTTPEVAFREYQTNCLASYISADPDITPSNLILQGYSGTGKTYTLKKYFNANPNLHAVWLEPVELVSWKPLLQAIARTVQYKLKTLYPNIPTTDYDPLQVEEPFLLVKTLHNIFVQYESLQEKTCLFLILDGFDSLQDLDAALFNKYIKLNELLPKDSKINIKFIYTMLETSFLQRYSTHCIPTVMFPRYNVDEVSTILVMSRCGELMEDSCLRKRIIEEQITDCTDDQFQNVAANFIHLIVQAFHSYTGNDIFALNDLIDFKWPKYVSRITKENIFEPLALYKSAIKLFLSTDDNLSENGQGESAITTNRDDLENSQTYDLSIISKYLLIASYICSYLEPRYDASIFSRKTRIIQGRAAYGRRKKKEVNPRYLQPSLFAIERLLAIFQAIFPIQGKAESGSLSALREESLMKANIEVFQNLSELHTLKLIATTMNKNIDYLSPKVRWKVNVPWEIIKEISESVHFNISDYFSDIHE
binds			S. cerevisiae Cdc6 (natural protein, UniProt P09119 1-513, looked up) MSAIPITPTKRIRRNLFDDAPATPPRPLKRKKLQFTDVTPESSPEKLQFGSQSIFLRTKALLQKSSELVNLNSSDGALPARTAEYEQVMNFLAKAISEHRSDSLYITGPPGTGKTAQLDMIIRQKFQSLPLSLSTPRSKDVLRHTNPNLQNLSWFELPDGRLESVAVTSINCISLGEPSSIFQKIFDSFQDLNGPTLQIKNMQHLQKFLEPYHKKTTFVVVLDEMDRLLHANTSETQSVRTILELFLLAKLPTVSFVLIGMANSLDMKDRFLSRLNLDRGLLPQTIVFQPYTAEQMYEIVIQKMSSLPTIIFQPMAIKFAAKKCAGNTGDLRKLFDVLRGSIEIYELEKRFLLSPTRGSLNSAQVPLTPTTSPVKKSYPEPQGKIGLNYIAKVFSKFVNNNSTRTRIAKLNIQQKLILCTIIQSLKLNSDATIDESFDHYIKAITKTDTLAPLQRNEFLEICTILETCGLVSIKKTKCKGKTKRFVDKIDVDLDMREFYDEMTKISILKPFLH
	binds		Orc3 (subunit of the purified ORC) (natural protein, S. cerevisiae, UniProt P54790 1-616, looked up) MSDLNQSKKMNVSEFADAQRSHYTVYPSLPQSNKNDKHIPFVKLLSGKESEVNVEKRWELYHQLHSHFHDQVDHIIDNIEADLKAEISDLLYSETTQKRRCFNTIFLLGSDSTTKIELKDESSRYNVLIELTPKESPNVRMMLRRSMYKLYSAADAEEHPTIKYEDINDEDGDFTEQNNDVSYDLSLVENFKRLFGKDLAMVFNFKDVDSINFNTLDNFIILLKSAFKYDHVKISLIFNINTNLSNIEKNLRQSTIRLLKRNYHKLDVSSNKGFKYGNQIFQSFLDTVDGKLNLSDRFVEFILSKMANNTNHNLQLLTKMLDYSLMSYFFQNAFSVFIDPVNVDFLNDDYLKILSRCPTFMFFVEGLIKQHAPADEILSLLTNKNRGLEEFFVEFLVRENPINGHAKFVARFLEEELNITNFNLIELYHNLLIGKLDSYLDRWSACKEYKDRLHFEPIDTIFQELFTLDNRSGLLTQSIFPSYKSNIEDNLLSWEQVLPSLDKENYDTLSGDLDKIMAPVLGQLFKLYREANMTINIYDFYIAFRETLPKEEILNFIRKDPSNTKLLELAETPDAFDKVALILFMQAIFAFENMGLIKFQSTKSYDLVEKCVWRGI
